Assay [1] addresses ATP synthase (complex V), human fibroblasts (human (endogenous in fibroblasts)) (UniProt P25705). Kind of assay: native gel or EMSA; clear native electrophoresis (CNE), 6-15% gradient gels, of digitonin-solubilised (4 g/g protein) mitochondria of human fibroblasts (control and patients) and ρ0 cells; western blot, in-gel activity staining, 2D CNE/SDS PAGE. A general note: Mobility shift assays separate free from complexed probe on a gel.

The target of assay [2] is CV lacking the mtDNA-coded subunits (ρ0 cells) (human (endogenous in 143B TK- ρ0 cells)) (UniProt P25705). The assay is described as above.
Assay [3] deals with respiratory chain complex IV, human fibroblasts (human (endogenous in fibroblasts)) (UniProt P13073). The description is as above.
Assay [4] concerns the target respiratory chain complex IV, rat heart (rat (endogenous in rat heart mitochondria)) (UniProt P10888). Kind of assay: native gel or EMSA; clear native electrophoresis (CNE), 6-15% gradient gels, of digitonin-solubilised (4 g/g protein) rat heart mitochondria; western blot, in-gel activity staining, 2D CNE/SDS PAGE and CNE/CNECBG.

Where “and” joins values, the source holds several entries; their conditions need not be identical. Equal values may be shown once.

Usually stoichiometry N stands for the number of molecules, sites or subunits per partner or assembly. As for “ATP synthase (complex V), human fibroblasts (from UniProt P25705 44-553; P06576 48-529; P36542 26-298; P00846 1-226; P03928 1-68)”, the stoichiometry N in assay [1] was 2 and 4.

For “CV lacking the mtDNA-coded subunits (ρ0 cells) (from UniProt P25705 44-553; P06576 48-529; P36542 26-298) (complex)”, in assay [2], the stoichiometry N is 2 and 4.

In assay [3], “respiratory chain complex IV, human fibroblasts (from UniProt P13073 23-169; P00395 1-513)” had a stoichiometry N of 2.

Turning to “respiratory chain complex IV, rat heart (from UniProt P10888 23-169; P05503 1-514)”, in assay [4], the stoichiometry N came out at 2.
